Here are results for three molecules from article PMC6499326 (Genes & Development, 2019).

The target in one data set is T1, MTR4;NRDE2 MID (Homo sapiens;Homo sapiens, UniProt P42285;Q9H7Z3 71-1042;163-266, |).
T1 sequence 1: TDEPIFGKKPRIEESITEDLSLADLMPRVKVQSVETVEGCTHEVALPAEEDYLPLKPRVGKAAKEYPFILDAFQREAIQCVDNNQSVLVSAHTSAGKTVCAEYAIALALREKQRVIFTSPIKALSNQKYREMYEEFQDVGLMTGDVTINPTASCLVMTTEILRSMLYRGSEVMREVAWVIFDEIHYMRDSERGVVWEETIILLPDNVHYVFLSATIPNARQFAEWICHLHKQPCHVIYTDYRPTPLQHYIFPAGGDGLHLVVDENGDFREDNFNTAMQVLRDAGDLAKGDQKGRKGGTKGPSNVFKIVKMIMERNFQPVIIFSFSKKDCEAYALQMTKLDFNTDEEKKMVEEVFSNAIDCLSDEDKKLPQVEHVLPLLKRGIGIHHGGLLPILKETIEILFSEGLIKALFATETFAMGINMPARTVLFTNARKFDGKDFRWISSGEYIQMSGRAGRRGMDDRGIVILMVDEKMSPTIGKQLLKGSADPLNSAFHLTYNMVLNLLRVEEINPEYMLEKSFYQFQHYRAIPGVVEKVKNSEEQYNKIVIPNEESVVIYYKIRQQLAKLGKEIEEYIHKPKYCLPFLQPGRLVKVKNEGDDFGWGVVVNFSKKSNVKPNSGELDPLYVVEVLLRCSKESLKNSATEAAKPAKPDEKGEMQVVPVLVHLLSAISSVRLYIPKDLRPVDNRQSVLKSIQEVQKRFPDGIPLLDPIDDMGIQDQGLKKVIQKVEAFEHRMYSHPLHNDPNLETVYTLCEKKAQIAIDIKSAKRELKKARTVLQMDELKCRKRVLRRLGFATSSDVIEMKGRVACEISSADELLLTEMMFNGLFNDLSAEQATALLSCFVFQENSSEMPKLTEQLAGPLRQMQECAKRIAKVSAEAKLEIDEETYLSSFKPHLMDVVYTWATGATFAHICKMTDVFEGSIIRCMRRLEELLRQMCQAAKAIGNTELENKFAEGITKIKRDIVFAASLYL
T1 sequence 2: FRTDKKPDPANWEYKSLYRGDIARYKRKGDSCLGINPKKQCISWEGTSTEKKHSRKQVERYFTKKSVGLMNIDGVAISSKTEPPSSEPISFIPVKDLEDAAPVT
The data set is described as follows: EMSA. (Mobility shift assays separate free from complexed probe on a gel.)

Another data set deals with T2, His-MTR4^71–1042 (human, UniProt P42285 71-1042).
T2 sequence: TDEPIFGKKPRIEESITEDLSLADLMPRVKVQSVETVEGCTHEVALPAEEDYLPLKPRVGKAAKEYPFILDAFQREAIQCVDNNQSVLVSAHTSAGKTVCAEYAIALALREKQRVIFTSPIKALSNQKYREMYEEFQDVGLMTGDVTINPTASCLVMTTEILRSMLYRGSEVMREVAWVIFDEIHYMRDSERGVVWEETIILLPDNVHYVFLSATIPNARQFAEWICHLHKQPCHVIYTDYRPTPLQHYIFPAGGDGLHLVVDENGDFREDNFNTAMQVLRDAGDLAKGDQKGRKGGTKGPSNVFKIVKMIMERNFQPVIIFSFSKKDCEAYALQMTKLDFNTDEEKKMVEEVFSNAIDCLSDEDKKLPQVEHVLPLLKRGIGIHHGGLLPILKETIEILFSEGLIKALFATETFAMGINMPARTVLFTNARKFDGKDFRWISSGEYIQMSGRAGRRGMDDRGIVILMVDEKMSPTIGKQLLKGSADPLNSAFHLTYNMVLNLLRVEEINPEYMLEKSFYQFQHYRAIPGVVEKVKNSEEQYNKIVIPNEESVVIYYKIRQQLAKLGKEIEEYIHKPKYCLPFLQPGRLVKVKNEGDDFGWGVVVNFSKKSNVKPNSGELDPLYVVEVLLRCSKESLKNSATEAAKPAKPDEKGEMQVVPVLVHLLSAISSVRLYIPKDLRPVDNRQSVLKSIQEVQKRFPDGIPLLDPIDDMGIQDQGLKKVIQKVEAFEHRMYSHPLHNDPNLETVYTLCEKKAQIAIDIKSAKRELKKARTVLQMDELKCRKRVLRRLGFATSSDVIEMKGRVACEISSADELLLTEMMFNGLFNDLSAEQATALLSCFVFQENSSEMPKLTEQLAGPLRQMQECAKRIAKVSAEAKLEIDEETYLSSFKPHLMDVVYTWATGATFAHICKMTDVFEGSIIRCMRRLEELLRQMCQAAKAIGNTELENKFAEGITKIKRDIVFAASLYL
The data set is described as follows: SEC.

The next data set has as its target T3, His-NRDE2^111–1164 (human, UniProt Q9H7Z3 111-1164).
T3 sequence: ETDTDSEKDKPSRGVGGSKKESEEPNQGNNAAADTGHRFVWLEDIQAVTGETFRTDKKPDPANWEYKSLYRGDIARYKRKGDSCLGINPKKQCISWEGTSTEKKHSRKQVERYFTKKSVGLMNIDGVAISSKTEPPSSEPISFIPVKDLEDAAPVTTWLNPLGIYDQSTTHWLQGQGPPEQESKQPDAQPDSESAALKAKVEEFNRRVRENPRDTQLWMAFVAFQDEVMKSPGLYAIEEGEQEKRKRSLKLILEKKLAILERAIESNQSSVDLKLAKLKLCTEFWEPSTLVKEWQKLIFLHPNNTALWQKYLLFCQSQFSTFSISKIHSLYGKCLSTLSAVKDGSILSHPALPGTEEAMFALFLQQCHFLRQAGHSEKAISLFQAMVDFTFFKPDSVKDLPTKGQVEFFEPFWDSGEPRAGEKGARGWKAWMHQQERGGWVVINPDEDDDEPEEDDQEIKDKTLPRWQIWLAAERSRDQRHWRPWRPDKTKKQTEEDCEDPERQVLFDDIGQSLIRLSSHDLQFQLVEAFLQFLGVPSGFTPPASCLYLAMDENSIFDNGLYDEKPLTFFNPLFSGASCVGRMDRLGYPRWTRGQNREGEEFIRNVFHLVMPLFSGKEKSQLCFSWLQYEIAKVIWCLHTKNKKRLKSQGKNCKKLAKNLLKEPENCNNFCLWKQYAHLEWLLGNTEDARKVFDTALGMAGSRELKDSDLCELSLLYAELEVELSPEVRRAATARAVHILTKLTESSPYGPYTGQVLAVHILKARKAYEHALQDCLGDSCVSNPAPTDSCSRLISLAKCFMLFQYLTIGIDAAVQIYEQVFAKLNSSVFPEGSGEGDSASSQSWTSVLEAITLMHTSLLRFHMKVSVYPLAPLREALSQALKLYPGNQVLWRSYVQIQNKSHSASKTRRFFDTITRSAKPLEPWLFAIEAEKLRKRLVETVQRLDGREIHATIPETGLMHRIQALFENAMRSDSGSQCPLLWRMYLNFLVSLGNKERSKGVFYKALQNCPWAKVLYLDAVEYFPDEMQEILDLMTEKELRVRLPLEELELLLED
The data set is described as follows: pull-down.

As to UGUCUGACUGAAGGACCAGGUGCUGUCUGA (ssRNA) [5' FAM RNA (EMSA)], the binding signal in the data set with MTR4;NRDE2 MID was ~8 fold higher affinity than MTR4 alone.

B1: untagged NRDE2^111–1164 (domain or fragment)
chain: ETDTDSEKDKPSRGVGGSKKESEEPNQGNNAAADTGHRFVWLEDIQAVTGETFRTDKKPDPANWEYKSLYRGDIARYKRKGDSCLGINPKKQCISWEGTSTEKKHSRKQVERYFTKKSVGLMNIDGVAISSKTEPPSSEPISFIPVKDLEDAAPVTTWLNPLGIYDQSTTHWLQGQGPPEQESKQPDAQPDSESAALKAKVEEFNRRVRENPRDTQLWMAFVAFQDEVMKSPGLYAIEEGEQEKRKRSLKLILEKKLAILERAIESNQSSVDLKLAKLKLCTEFWEPSTLVKEWQKLIFLHPNNTALWQKYLLFCQSQFSTFSISKIHSLYGKCLSTLSAVKDGSILSHPALPGTEEAMFALFLQQCHFLRQAGHSEKAISLFQAMVDFTFFKPDSVKDLPTKGQVEFFEPFWDSGEPRAGEKGARGWKAWMHQQERGGWVVINPDEDDDEPEEDDQEIKDKTLPRWQIWLAAERSRDQRHWRPWRPDKTKKQTEEDCEDPERQVLFDDIGQSLIRLSSHDLQFQLVEAFLQFLGVPSGFTPPASCLYLAMDENSIFDNGLYDEKPLTFFNPLFSGASCVGRMDRLGYPRWTRGQNREGEEFIRNVFHLVMPLFSGKEKSQLCFSWLQYEIAKVIWCLHTKNKKRLKSQGKNCKKLAKNLLKEPENCNNFCLWKQYAHLEWLLGNTEDARKVFDTALGMAGSRELKDSDLCELSLLYAELEVELSPEVRRAATARAVHILTKLTESSPYGPYTGQVLAVHILKARKAYEHALQDCLGDSCVSNPAPTDSCSRLISLAKCFMLFQYLTIGIDAAVQIYEQVFAKLNSSVFPEGSGEGDSASSQSWTSVLEAITLMHTSLLRFHMKVSVYPLAPLREALSQALKLYPGNQVLWRSYVQIQNKSHSASKTRRFFDTITRSAKPLEPWLFAIEAEKLRKRLVETVQRLDGREIHATIPETGLMHRIQALFENAMRSDSGSQCPLLWRMYLNFLVSLGNKERSKGVFYKALQNCPWAKVLYLDAVEYFPDEMQEILDLMTEKELRVRLPLEELELLLED
For the molecule B1, the stoichiometry N (in general, a count of units in the complex or per binding partner) with His-MTR4^71–1042 is 1.

B2: MBP-MTR4^FL (natural protein)
chain: MADAFGDELFSVFEGDSTTAAGTKKDKEKDKGKWKGPPGSADKAGKRFDGKLQSESTNNGKNKRDVDFEGTDEPIFGKKPRIEESITEDLSLADLMPRVKVQSVETVEGCTHEVALPAEEDYLPLKPRVGKAAKEYPFILDAFQREAIQCVDNNQSVLVSAHTSAGKTVCAEYAIALALREKQRVIFTSPIKALSNQKYREMYEEFQDVGLMTGDVTINPTASCLVMTTEILRSMLYRGSEVMREVAWVIFDEIHYMRDSERGVVWEETIILLPDNVHYVFLSATIPNARQFAEWICHLHKQPCHVIYTDYRPTPLQHYIFPAGGDGLHLVVDENGDFREDNFNTAMQVLRDAGDLAKGDQKGRKGGTKGPSNVFKIVKMIMERNFQPVIIFSFSKKDCEAYALQMTKLDFNTDEEKKMVEEVFSNAIDCLSDEDKKLPQVEHVLPLLKRGIGIHHGGLLPILKETIEILFSEGLIKALFATETFAMGINMPARTVLFTNARKFDGKDFRWISSGEYIQMSGRAGRRGMDDRGIVILMVDEKMSPTIGKQLLKGSADPLNSAFHLTYNMVLNLLRVEEINPEYMLEKSFYQFQHYRAIPGVVEKVKNSEEQYNKIVIPNEESVVIYYKIRQQLAKLGKEIEEYIHKPKYCLPFLQPGRLVKVKNEGDDFGWGVVVNFSKKSNVKPNSGELDPLYVVEVLLRCSKESLKNSATEAAKPAKPDEKGEMQVVPVLVHLLSAISSVRLYIPKDLRPVDNRQSVLKSIQEVQKRFPDGIPLLDPIDDMGIQDQGLKKVIQKVEAFEHRMYSHPLHNDPNLETVYTLCEKKAQIAIDIKSAKRELKKARTVLQMDELKCRKRVLRRLGFATSSDVIEMKGRVACEISSADELLLTEMMFNGLFNDLSAEQATALLSCFVFQENSSEMPKLTEQLAGPLRQMQECAKRIAKVSAEAKLEIDEETYLSSFKPHLMDVVYTWATGATFAHICKMTDVFEGSIIRCMRRLEELLRQMCQAAKAIGNTELENKFAEGITKIKRDIVFAASLYL
Consider B2, for which the binding result with His-NRDE2^111–1164 is on record as “binds”.
